In paper PMC7289602, “Measuring ligand-cell surface receptor affinities with axial line-scanning fluorescence correlation spectroscopy” (eLife, 2020):

Columns and labels:
[1] = target: LRP6-mCherry, stably expressed in NCI-H1703 cells (human) (UniProt O75581); assay: dual-color axial line-scanning fluorescence cross-correlation spectroscopy (axial lsFCS); two receptors in the plasma membrane of live NCI-H1703 cells stably expressing LRP6-mCherry and transiently xKremen2-eGFP; fractions that co-diffuse from the ratios of cross- and autocorrelation amplitudes
Sequence of LRP6-mCherry, stably expressed in NCI-H1703 cells (human) (O75581 20-1613): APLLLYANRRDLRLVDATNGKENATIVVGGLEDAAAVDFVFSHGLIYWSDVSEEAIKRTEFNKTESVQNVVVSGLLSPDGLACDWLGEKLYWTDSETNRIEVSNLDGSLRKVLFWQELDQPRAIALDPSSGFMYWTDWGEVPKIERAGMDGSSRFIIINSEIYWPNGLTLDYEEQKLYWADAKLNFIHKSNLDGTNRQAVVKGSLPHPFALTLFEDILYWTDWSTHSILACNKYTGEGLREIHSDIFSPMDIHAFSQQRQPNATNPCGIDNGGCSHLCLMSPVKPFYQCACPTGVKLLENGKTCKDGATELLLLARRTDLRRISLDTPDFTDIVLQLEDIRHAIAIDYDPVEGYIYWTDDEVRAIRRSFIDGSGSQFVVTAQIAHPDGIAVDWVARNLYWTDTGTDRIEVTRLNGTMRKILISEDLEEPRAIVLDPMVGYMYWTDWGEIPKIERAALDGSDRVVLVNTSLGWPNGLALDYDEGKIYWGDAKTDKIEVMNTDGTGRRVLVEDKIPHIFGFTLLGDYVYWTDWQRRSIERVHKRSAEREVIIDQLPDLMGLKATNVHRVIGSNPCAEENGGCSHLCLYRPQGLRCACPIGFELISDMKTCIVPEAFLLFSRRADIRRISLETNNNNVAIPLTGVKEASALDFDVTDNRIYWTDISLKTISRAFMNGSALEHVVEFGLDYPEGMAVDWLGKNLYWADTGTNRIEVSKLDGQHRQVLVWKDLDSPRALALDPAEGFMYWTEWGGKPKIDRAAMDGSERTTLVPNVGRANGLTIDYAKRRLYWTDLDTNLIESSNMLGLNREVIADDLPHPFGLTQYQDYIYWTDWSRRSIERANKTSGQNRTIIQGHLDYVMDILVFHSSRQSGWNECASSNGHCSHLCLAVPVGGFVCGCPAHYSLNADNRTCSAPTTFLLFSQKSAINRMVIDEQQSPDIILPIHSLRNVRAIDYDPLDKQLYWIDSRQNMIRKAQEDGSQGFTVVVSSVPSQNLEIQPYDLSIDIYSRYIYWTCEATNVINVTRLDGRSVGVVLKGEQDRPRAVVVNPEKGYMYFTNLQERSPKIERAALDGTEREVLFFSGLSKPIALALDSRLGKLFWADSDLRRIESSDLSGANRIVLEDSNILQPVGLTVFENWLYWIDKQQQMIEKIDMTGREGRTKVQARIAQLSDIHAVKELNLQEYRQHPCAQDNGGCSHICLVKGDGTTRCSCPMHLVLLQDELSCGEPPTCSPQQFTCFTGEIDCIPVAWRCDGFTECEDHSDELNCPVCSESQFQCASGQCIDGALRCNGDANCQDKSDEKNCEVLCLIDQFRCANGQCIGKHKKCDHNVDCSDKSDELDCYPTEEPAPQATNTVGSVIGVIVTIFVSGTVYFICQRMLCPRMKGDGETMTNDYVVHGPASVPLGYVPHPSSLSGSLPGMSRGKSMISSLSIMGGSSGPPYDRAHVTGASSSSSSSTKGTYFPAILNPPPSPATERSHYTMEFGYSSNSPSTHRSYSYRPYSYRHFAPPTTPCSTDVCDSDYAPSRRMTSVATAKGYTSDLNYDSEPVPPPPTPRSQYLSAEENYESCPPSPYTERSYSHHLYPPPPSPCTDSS

[2] = target: T1, endogenously tagged LRP6-mCherry in CRISPR/Cas9 edited NCI-H1703 cells (human (endogenous in NCI-H1703), UniProt O75581 20-1613); assay: dual-color axial line-scanning fluorescence cross-correlation spectroscopy (axial lsFCS); live CRISPR/Cas9 edited NCI-H1703 cells with endogenously tagged LRP6, ligand in conditioned medium at varied concentrations, 37°C, 5% CO2, 60 s scans, fit of Γ(CL) with Equation 5; conditions: partners not purified
T1 construct: lipoprotein-receptor related protein 6 (LRP6), human, expressed from the endogenous locus of NCI-H1703 cells; Untagged LRP6 from the unedited allele is also present; receptor density 18 ± 9 per µm^2; source: NCI-H1703, CRISPR/Cas9 edited at the endogenous LRP6 locus (exon 23), heterozygous clone, on live cells
T1 sequence (O75581 20-1613): as above

[3] = target: T2, LRP6-mCherry, stably expressed in NCI-H1703 cells (human, UniProt O75581 20-1613); assay: dual-color axial line-scanning fluorescence cross-correlation spectroscopy (axial lsFCS); live NCI-H1703 cells stably expressing LRP6-mCherry, ligand in conditioned medium at varied concentrations, 37°C, 5% CO2, 60 s scans, with background and photobleaching correction, fit of Γ(CL) with Equation 5; conditions: partners not purified
T2 construct: lipoprotein-receptor related protein 6 (LRP6), human; the ORF of the hLRP6-mCherry fusion inserted into pEF1a-IRES-Neo; Same fusion ORF as m4 and m5; receptor density 45 ± 23 per µm^2; also called hLRP6-mCherry; exogenous LRP6-mCherry; source: NCI-H1703, stably transfected clonal line (pEF1a-hLRP6-mCherry-IRES-Neo, G418 selection), on live cells; not shown: mCherry, C-terminal, kept
T2 sequence (O75581 20-1613): as above

[4] = target: T3, LRP6-mCherry, transiently expressed in NCI-H1703 cells (human, UniProt O75581 20-1613); assay: dual-color axial line-scanning fluorescence cross-correlation spectroscopy (axial lsFCS); live NCI-H1703 cells transiently expressing the receptor (xKremen2-mCherry without or with unlabeled LRP6; apparent affinity with LRP6), ligand in conditioned medium at varied concentrations, 37°C, 5% CO2, 60 s scans, fit of Γ(CL) with Equation 5; conditions: partners not purified
T3 construct: lipoprotein-receptor related protein 6 (LRP6), human; plasmid pCS2+hLRP6-mCherry (Dörlich et al., 2015); Same construct as m4 in another cell line; receptor density 140 ± 80 per µm^2; also called hLRP6-mCherry; source: NCI-H1703, transiently transfected (pCS2+hLRP6-mCherry, with MesD 1:6), on live cells; not shown: mCherry, C-terminal, kept
T3 sequence (O75581 20-1613): as above

[5] = target: T4, endogenously tagged LRP6-tdTomato in CRISPR/Cas9 edited NCI-H1703 cells (human (endogenous in NCI-H1703), UniProt O75581 20-1613); assay: dual-color axial line-scanning fluorescence cross-correlation spectroscopy (axial lsFCS); live CRISPR/Cas9 edited NCI-H1703 cells with endogenously tagged LRP6, ligand in conditioned medium at varied concentrations, 37°C, 5% CO2, 60 s scans, fit of Γ(CL) with Equation 5; conditions: partners not purified
T4 construct: lipoprotein-receptor related protein 6 (LRP6), human, expressed from the endogenous locus of NCI-H1703 cells; Untagged LRP6 from the unedited allele is also present; receptor density 21 ± 15 per µm^2; source: NCI-H1703, CRISPR/Cas9 edited at the endogenous LRP6 locus (exon 23), heterozygous clone, on live cells; not shown: tdTomato (after the linker AS from the NheI site), C-terminal, kept
T4 sequence (O75581 20-1613): as above

[6] = target: T5, LRP6-mCherry, transiently expressed in HEK293T cells (human, UniProt O75581 20-1613); assay: dual-color axial line-scanning fluorescence cross-correlation spectroscopy (axial lsFCS); live HEK293T cells transiently expressing the receptor, ligand in conditioned medium at varied concentrations (0.01-220 nM), 37°C, 5% CO2, 60 s scans, fit of Γ(CL) with Equation 5; conditions: partners not purified
T5 construct: lipoprotein-receptor related protein 6 (LRP6), human; plasmid pCS2+hLRP6-mCherry (Dörlich et al., 2015); Receptor density 370 ± 150 or 1080 ± 470 per µm^2 in the two series; MesD was co-transfected; also called hLRP6-mCherry; lipoprotein-receptor related protein 6; source: HEK293T, transiently transfected (pCS2+hLRP6-mCherry, with MesD 1:6), on live cells; not shown: mCherry, C-terminal, kept
T5 sequence (O75581 20-1613): as above

[7] = target: (Xenopus laevis) xKremen2-mCherry (Xenopus laevis); assay: dual-color axial line-scanning fluorescence cross-correlation spectroscopy (axial lsFCS); live NCI-H1703 cells transiently expressing the receptor (xKremen2-mCherry without or with unlabeled LRP6; apparent affinity with LRP6), ligand in conditioned medium at varied concentrations, 37°C, 5% CO2, 60 s scans, fit of Γ(CL) with Equation 5
[8] = target: xKremen2-mCherry co-expressed with unlabeled LRP6 (Xenopus laevis | human) (UniProt O75581); assay: as above
[9] = target: T2, LRP6-mCherry, stably expressed in …; assay: dual-color axial line-scanning fluorescence cross-correlation spectroscopy (axial lsFCS); the same data as a3 (NCI-H1703 stably expressing LRP6-mCherry), analysed without prior background correction of the intensity time traces; conditions: partners not purified
[10] = target: T5, LRP6-mCherry, transiently expressed in …; assay: time-lapse spinning disk confocal imaging of ligand fluorescence on the cell membrane; association: HEK293T cells expressing LRP6-mCherry, conditioned medium with DKK1-eGFP at different concentrations, 37°C, 5% CO2, frames every 100 s for 1 hr, linear regression of apparent rate coefficients; the authors call such measurements on individual cells highly unreliable; conditions: partners not purified
[11] = target: T5, LRP6-mCherry, transiently expressed in …; assay: time-lapse spinning disk confocal imaging of ligand fluorescence on the cell membrane; dissociation after two washing steps, frames every 300 s for up to 3 hr, average of 50 cells; kon from a regression of apparent rate coefficients at 3.5 and 7 nM with this koff fixed; 37°C, 5% CO2; conditions: partners not purified
[12] = target: T6, LRP6-tdTomato, transiently expressed in NCI-H1703 cells (human, UniProt O75581 20-1613); assay: dual-color axial line-scanning fluorescence cross-correlation spectroscopy (axial lsFCS); live NCI-H1703 cells transiently expressing the receptor (xKremen2-mCherry without or with unlabeled LRP6; apparent affinity with LRP6), ligand in conditioned medium at varied concentrations, 37°C, 5% CO2, 60 s scans, fit of Γ(CL) with Equation 5; conditions: partners not purified
T6 construct: lipoprotein-receptor related protein 6 (LRP6), human; pCS2+hLRP6-tdTomato, made by replacing the mCherry ORF of pCS2+hLRP6-mCherry; Receptor density 106 ± 52 per µm^2; also called hLRP6-tdTomato; source: NCI-H1703, transiently transfected (pCS2+hLRP6-tdTomato, with MesD 1:6), on live cells; not shown: tdTomato, C-terminal, kept
T6 sequence (O75581 20-1613): as above

[13] = target: T2, LRP6-mCherry, stably expressed in …; assay: dual-color axial line-scanning fluorescence cross-correlation spectroscopy (axial lsFCS); live NCI-H1703 cells stably expressing LRP6-mCherry, ligand in conditioned medium at varied concentrations, 37°C, 5% CO2, 60 s scans, with background and photobleaching correction, fit of Γ(CL) with Equation 5; conditions: partners not purified; remark: listed apart in the source

“(Xenopus laevis) xKremen2-eGFP (receptor)” gave a bound fraction of LRP6 receptors FR, corrected assuming an eGFP maturation yield of 0.9 [1] of 0.26, a bound fraction of xKremen2 receptors FG, corrected assuming an mCherry maturation yield of 0.5 [1] of 0.18 and a percent of LRP6 receptors co-diffusing with xKremen2 [1] of 25%. It also gave a percent of xKremen2 receptors co-diffusing with LRP6 [1] of 15%.

B1: human Dickkopf1 fused to eGFP (DKK1-eGFP) (ligand, UniProt O94907 32-266, looked up)
chain: TLNSVLNSNAIKNLPPPLGGAAGHPGSAVSAAPGILYPGGNKYQTIDNYQPYPCAEDEECGTDEYCASPTRGGDAGVQICLACRKRRKRCMRHAMCCPGNYCKNGICVSSDQNHFRGEIEETITESFGNDHSTLDGYSRRTTLSSKMYHTKGQEGSVCLRSSDCASGLCCARHFWSKICKPVLKEGQVCTKHRRKGSHGLEIFQRCYCGEGLSCRIQKDHHQASNSSRLHTCQRH
notes: Dickkopf1 (DKK1), human; also called hDKK1-eGFP
In the case of B1, the Kd [2] is reported as 0.09 ± 0.01 nM, the Kd [3] is reported as 0.08 ± 0.01 nM and the Kd [4] is reported as 0.22 ± 0.02 nM. For the same molecule, the Kd [5] was 0.1 ± 0.02 nM, the Kd [6] was 0.49 ± 0.09 nM and the Kd [7] was 10.3 nM. It also gave a Kd [8] of 0.54 nM, a Kd [9] of 0.1 ± 0.02 nM and a Kd [10] of 2.6 ± 0.1 nM. The koff [10] was 0.0013 s⁻¹, the kon [10] was 500000 M⁻¹ s⁻¹ and the Kd [11] was 0.4 ± 0.1 nM. For the same molecule, the koff [11] was 0.00026 s⁻¹, the kon [11] was 670000 M⁻¹ s⁻¹ and the Kd [12] was 0.22 ± 0.03 nM.

B2: human Dickkopf1 fused to eGFP and a SNAP-tag domain (DKK1-eGFP-SNAP) (ligand, UniProt O94907 32-266, looked up)
chain: B1 chain
notes: Dickkopf1 (DKK1), human; made from pCS2+hDKK1-eGFP by adding a linker and the SNAP-tag gene; SNAP-tag domain is 19.4 kDa; also called hDKK1-eGFP-SNAP; source: conditioned medium
B2 gave a Kd [6] of 0.46 ± 0.09 nM.

B3: human Dickkopf2 fused to eGFP (DKK2-eGFP) (ligand, UniProt Q9UBU2 34-259, looked up)
chain: KLNSIKSSLGGETPGQAANRSAGMYQGLAFGGSKKGKNLGQAYPCSSDKECEVGRYCHSPHQGSSACMVCRRKKKRCHRDGMCCPSTRCNNGICIPVTESILTPHIPALDGTRHRDRNHGHYSNHDLGWQNLGRPHTKMSHIKGHEGDPCLRSSDCIEGFCCARHFWTKICKPVLHQGEVCTKQRKKGSHGLEIFQRCDCAKGLSCKVWKDATYSSKARLHVCQKI
notes: Dickkopf2 (DKK2), human; also called hDKK2-eGFP
For B3, the Kd [13] was 0.26 ± 0.04 nM.
